Source: a protein production outcome set (Wang et al. 2014)

Assay: label from the status in PepcDB records
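Further: failed if final PepcDB status was selected cloned or expressed and not failed if soluble or beyond.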

MKILQILSRLYVADLNPALEFYEELLETPVAMRFEIPQTGVELAQISTILLIAGSEEALKPFRNTQATFLVDSLDKFKTFLEENGAEIIRGPSKVPTGRNMTVRHSDGSVIEYVEHSKIE
protein production: not failed

MMTTRNGSLRFFNHTFSFYDEATCVVREEELQRELMPRHVSFILDGNRRWAKRDGLTTAQGHEAGTKRIIEIAERIGEETRKEVRVSVIGNKTKIPESLLKEIHEIEEATKATRISISSWQ
protein production: failed

MMGDYGITEEDLVIEEAQGYPRAYTKICRDFDAFPYKNGPPFTFMPYILQQNESLRCREVDQMFPVIDPKARPTTKPKIFLSLLWKQLNHLGNAGFDPAVIRIDPYGNVVYFHADSASPLAWSFDHWFPCSRGGLTVPSNLRIVQWQARKNKKDKLEFLVPWWDLQVGISVNQFLSIFAASSSDFRYR
protein production: failed

MYSKIEGSIITARFDKETDFFTDLVDLCNKYEVKSGTVLWAIGMLKEFQIGYWNGNDYEKETFRERLELVSLHGSIAENDPRFHIHAAGARGNHGIVGGHLFSAKVDPLVEIQIMKITGFSMSRELDNSDGLYKLVIKLEHHHHHH
protein production: failed

MWNLTRRQWRQILVTVILALAVLLFFLWPLPKYIEGPGEADNLKSFVTVDKHPDKHKGKYMITSVALAQARPVSYLYAKFNPYYSIESVASVTGGESNATYDKVQNFYMKSAINESIYTAYRAAHKTVKRHYLGIYVLSVDRQSPFAQALKVGDTVTEVNGHHFNSMTGYQRYIQRQKVGQRATITYQRNGKTHHVTAKLMRLPTKKAGIGITLTDNVKVSARPKVQVNPGNIGGPSGGLMFSLQIYTQVTGQDLRHGRKIAGTGTVDGDGNVGEIGGIDKKIIAAKRAGATVFFAPYVKPTKLLLKYEEQHQTNYQLAKATAKKYAPNMKVVPVKSFDDAVHYLRTHR
protein production: failed

MLAAGMSRRMGFNKLLAPLCGKRVLWHVLELVARFEGVLEGAVVVTSGEVADVLRRERPPGRRGLFRVVVNREQWRGLSHSIRLGVEASPGARAYLFFNGDRPFVSKHTVARVLALYMARRPLIAAPMAGGAIAPPVVVDSRLRGELLRLSGDTGVRSLFGKYRDSLAVVEVDDPGLHLDVDTPEDLERASKMCSQLGGGPREKPLEHHHHHH
protein production: failed

MMVDTGVDHRAVSSHDGPDAGRRVFGAADPRFACVVRAFASMFPGRRFGGGALAVYLDGQPVVDVWKGWADRAGWVPWSADSAPMVFSATKGMTATVIHRLADRGLIDYEAPVAEYWPAFGANGKATLTVRDVMRHQAGLSGLRGATQQDLLDHVVMEERLAAAVPGRLLGKSAYHALTFGWLMSGLARAVTGKDMRLLFREELAEPLDTDGLHLGRPPADAPTRVAEIIMPQDIAANAVLTCAMRRLAHRFSGGFRSMYFPGAIAAVQGEAPLLDAEIPAANGVATARALARMYGAIANGGEIDGIRFLSRELVTGLTRNRRQVLPDRNLLVPLNFHLGYHGMPIGNVMPGFGHVGLGGSIGWTDPETGVAFALVHNRLLSPLVMTDHAGFVGIYHLIRQAAAQARKRGYQPVTPFGAPYSEPGAAAG
protein production: failed

MSDVRTNEAEKRHAHPDFDAARFPADARVRVLARRFPPYHRDSPCLAILDRFLHDPTLSAAAVVDDAMRPVGLIDRYSLVEQFLHPYSRDLYHKHSIAAFMDPEPVIVEADSSIDDLSRIIIDAGMRHMVSGFIVTEDGLYLGIGSGHDLFEEVANRKQNHLYHLAHYDPLTSLPNRLLLNDRLKRACLRGQRGGYRIALLFIDLDRFKLVNDTLGHAAGDQLLQGVAGRFAACVRKVDTVARLGGDEFTVLLEPVQGPDEALAVAAKLAQSLERPFLIQNHEITTSASIGVVLFPEHDATVEGLMRKADAAMYCAKREGRNRFALFTEEMNSTVVERVTLESYLNAALEKGEFCCHFQPQMATADDRIVGVEALLRWTNPVLGRVPPLKFIPVAEDTGLILPLGLWALETACAQQVRWLSQGLPPLRMAVNISPLQFRNREFCDQVRAIVQRTGIRAEHLELELTESAVMADAESSVGILRELRDSGIRLAIDDFGTGYSSLSYLRKFPLDRLKIDRSFVSGIDRIPANELIVKAIVALGGSLGLDVIAEGVETPEELECIERCGCSEYQGFRLSEPLTAEDFAHWFEDSGYV
protein production: failed

MEDIYKLIDDINLQKIENLDSRVNEALSSNNDDALFILGETLYNFGLTPQGLEVFRTLYHKYPDESELLIYFIEGLMSENQTDEALEYLAQVEPSTEKLMLEADLYQQINMLEVAIDKLQEALDLEPNDPIIHFALAELLYYDGQYLRATREYETVLETGEYEVNGVNIFSRMADCSLQSGNYSDAISLFDEINEEEMNSEDYFKKSIAYEKNDLTQEAIKIMQTLLSKDPDFIQGYFYLQSLFENEKNYPDAIETGKEGLRLSQFYKELMVSTGSLEIEHGDANEGVELLKQALEVDNAYHEPLLILSDLYRNEEDYESIIQLLTYVDEEDLDPIFMWHLAYAYGQEERDKEAQHFFELAYPTLQTQVEFLSDYYFYLLEIGQKEKAILILNQLLEIDPSNENWHDESMRLQI
protein production: failed

MFPYKIVDDVVILMPNKELNIENAHLFKKWVFDEFLNKGYNKIFLVLSDVESIDSFSLGVIVNILKSISSSGGFFALVSPNEKVERVLSLTNLDRIVKIYDTISEAMEEVRRK
protein production: not failed

GDAPPEIHAIYTDITERTRLEETLTYRSELESKIVDISTRFINTPIDDLDREIEAALQAIGAFVDADRSYVFLFDDEAATMSNTHEWRTEATASTQSRLQNIPYAETPWFMARMRRREGPLRVPRLEDLPPDAAGLRQRLEAGNVQSLLVLPMLNDQDLIGFVGFDAVRQQRDWDADTVMLLRVLSDAISNALQRKTAEKEMLAAKEEAEDANRMKSVFLANMSHEIRTP
protein production: not failed

MYFLKKIVNLFSSKIESEDNNVKKDDLTQPRKQSPEARKRRNRRIIFWLIILLIIGTIIGVIIYFSVRKEYDNVIVKSAQTEVVNNKKVLYLNTIRPNSTQITRYTIDEDQLLTARVNILNNTNFQIISNASSLGLSRISFNIVREGVEKFKLGETNIYAPISGNTNNQWNWLTSIITQNAGIPSSGFNPQVIISPLISIIFFIIFLYIILRVSKAQSDSLLGTNKANAKLTKSGVRFSDVAGIAEVKEELIEIVDFLKEPKKYVAAGARIPKGVMLYGPPGTGKTLIAKAVAGEANVPFFQTTGSSFEDTFVGVGARRVRELFEKARKSAPAIIFIDEIDSVAKKRGNSLTAVQDQTINQLLSELDGFDTSSGVIVMAATNRLDTLDDAILRPGRFDRQISVNLPDILEREQILRIHSRNKNLSAKVSLEDIARRTAGFSGAQLENVLNEAALLSVRDKATSIHMNHLDEAIDRVIAGPSRPNKVISEREREQVSYHEAGHALIGLYSPGADVVQKITIVARGRAAGYTLQTPERNENILQNKTELISRVRTALGGRAAEELIYGPNEITTGAANDFYKITNIVRAMVASFGMTDVGLTQYIATEGVDNPYRNSYSEQTALAIDIEIEKIIQREYKIVKEMINEHREELELIVQTLLELETILKPQIDYIHQYKQLPPEVIANKNKREASQKQANSSVEEAKVVDDEESIKDKEKDQKSN
protein production: failed

AAKQDVKVFSEDGTSKVVEILADMTARDLCQLLVYKSHCVDDNSWTLVEHHPHLGLERCLEDHELVVQVESTMASESKFLFRKNYAKYEFFK
protein production: failed

MRAGVREVIDDSSERTLQQVIERAFLRTKGAIIRQKRVFGFVSAKGGDGGSCIAANFAFALSQEPDIHVLAVDISLPFGDLDMYLSGNTHSQDLADISNASDRLDKSLLDTMVQHISPSLDLIPSPATFEKIVNIEPERVSDLIHIAASFYDYIIVDFGASIDHVGVWVLEHLDELCIVTTPSLQSLRRAGQLLKLCKEFEKPISRIEIILNRADTNSRITSDEIEKVIGRPISKRIPQDEDAMQESLLSGQSVLKVAPKSQLSKTIVDWALHLNGVSRPNKRSIWERLKIK
protein production: not failed

MSGTSAALKPPADATTPVRHPDAPAPGELLGAHYGHCFGCGEEQSHGLHLAARAGQGVSITAEFTVQPAHQGAPGLAHGGVLATALDETLGSLNWLLRTIAVTGRLETDFVRPVPVGTVLYLEAEVTAVAGRKIYSTATGRIGGPEGPVAVRADALFVEVKVDHFTDNGRQEEIRAAMNDPDQLRRARAFEVNP
protein production: failed

MPALSGLHLAPSVASFLCLAWTVALYFAVKPLYQRLPRIWLSPAIVVPALTIPLLLITGIPYAEYVADTRWMVWLLGPATIAFAVPIYEHREIVRRHWIALALGVIAGMLVAMLSARLLAEAFHFSSEVSSSLMARSVSTPFAVAVVAHTGGSAELVSLFTVMTGLAGMIVGDTVLGLLRLRSPVAQGASLGTAAHGFGTARARQRHAEEGVVASLTMVLAGVLMVIAGPTLTGWVTALVG
protein production: failed

RTDRTALIDLMQALNQHMTYTQGATEVDTSAAQAFAGRSGVCQDHTHAFLACARSLGVPARYVSGYLCSEDSEHLSSHAWAEAWIDDAWYSFDVTNQLAIPERHLKLAVGLDYLDACPVRGMRRG
protein production: failed

MNHDIDIKKVRLNCFRQSKVPGEFMLQMRIPGGIVDAKYLSQIQEIAETWGNGTFHMGMRQTFNIPGIKYENIQAVNKFIENYLQEVEVDRCNCDMKVDENGYPTIGARNVMACIGNSHCIKANVDTKDMANKIEKLVFPSHYHIKVSVAGCPNDCAKGHFQDFGVIGQARMEYHEERCIGCGACVRACEHHATRVLSLNDKGLVDKDPCCCVGCGECVLACPASAWTRKPEKFYRIVIGGRTGKQTPRMGKTFINFATEEVVLGIFANWQKFSAWALDYKPEYLHGGHLIDRAGYHKFKEIILDGVELNPEALVADNIFWAETEYRSNFNVKPIKMHKTIESNRPLRLEHHHHHH
protein production: failed

FIQIKPGYDYPIISALRAIISGNADAVPDEVGGVSKEKLVELAETMKNAKYGAVLYGLGVTQSRGRDRNVENAVKLIQLLNRHTRWVIWPMRGHYNVVGAGEVPAWEVGYQYAIDFSRGYPR
protein production: failed

MGRKDSLDLEEEAASGASSALEAGGSSGLEDVLPLLQQADELHRGDEQGKREGFQLLLNNKLVYGSRQDFLWRLARAYSDMCELTEEVSEKKSYALDGKEEAEAALEKGDESADCHLWYAVLCGQLAEHESIQRRIQSGFSFKEHVDKAIALQPENPMAHFLLGRWCYQVSHLSWLEKKTATALLESPLSATVEDALQSFLKAEELQPGFSKAGRVYISKCYRELGKNSEARWWMKLALELPDVTK
protein production: failed

MSRHPARTGEKTFFGHPFQLSTLFHIELWERFSFYGMQGILLIYLYYTADKGGLGIDKTLAGGIVGAYSGSVYLSTILGAWFADRVWGAEKTLFLSGIVVMLGHIVLAAAPGLYGLLIGLIFIALGSGGVKSTASSMVGALYEQDEMRPLRDAGFSIFYIAINIGGFLGPLLTGLLQENIGFHYGFGAAAVGMAFGLWRYSLGRKNLPHPTVPHPLSKGQGKTAAAVGITLIAALATAIKTGLVNLDNFSGILLSTVILAVIAYFARLLTNPRVSSDNKRHIIAYIPLFLTICMFWAVWFQIYTVATVYFDETVNRTIGSFTVPVAWKDSMQSLWVILFSGLMAAMWTKMGRKQPKTPLKFAMAVFVTGASFLGFVPFISSGTPMPIAVFALIVLAITIGELMISPIALSISTKIAPPLFKTQMVALNFLAFSLGFTLGGVLFEKGYQAGDEIGFYRLLFYIGAATGFLLLLLVPKLNKMLEGTD
protein production: failed

AQNEKNMYSYKKIGNKYIVSINNHTEIVKALNAFCKEKGILSGSINGIGAIGELTLRFFNPKTKAYDDKTFREQMEISNLTGNISSMNEQVYLHLHITVGRSDYSALAGHLLSAIQNGAGEFVVEDYSERISRTYNPDLGLNIYDFER
protein production: not failed

MKQIRLLAQYYVDLMMKLGLVRFSMLLALALVVLAIVVQMAVTMVLHGQVESIDVIRSIFFGLLITPWAVYFLSVVVEQLEESRQRLSRLVQKLEEMRERDLSLNVQLKDNIAQL
protein production: not failed
